According to patent US20030073629A1, “Omi and domains thereof that disrupt IAP-caspase interaction” (priority 2001, published 2003):

Tests used:
[1] = molecular target: T1, GST-BIR3-E314S mutant (Homo sapiens, UniProt P98170, E314S); assay: Interaction of purified recombinant proteins with GST-BIR3-E314S mutant; format: binding; conditions: purified C-terminal His6-tagged recombinant protein
T1 construct: Omi associates directly with the BIR3 domain of XIAP
Text: (§1) FIGS. 7A and 7B are scanned images of Coomassie stained gels representing SDS-PAGE analysis of purified C-terminal His6-tagged recombinant wild type mature Omi (WT), Omi-ΔAVPS, Omi-S306A, and mature Smac (7A) and recombinant Omi and Smac proteins with GST-BIR1, GST-BIR2, GST-BIR3, or GST-BIR3-E314S fusion proteins (7B).
To confirm that Omi associates directly with the BIR3 domain of XIAP but not with the Smac protein, Smac was depleted from the 293 extracts using a Smac monoclonal antibody. Specifically, 293 cellular extracts were either left untreated (undepleted lane of FIG. 4) or depleted with a Smac antibody (lane depleted of FIG. 4). The undepleted and depleted extracts were incubated with the GST-BIR3 protein and the bound proteins were eluted as above. The eluates were then analyzed by far-western blotting with ^35S-XIAP and by western blotting with the Smac antibody as described above (see FIG. 4, left and right panels, respectively). […] The last lane of each panel in FIG. 4 represents the 293 cellular extracts that were bound to the E314S mutant GST-BIR3 fusion protein. […] The asterisk in FIG. 4 indicates non-specific bands and the arrow indicates the IgG band. […]

[2] = molecular target: T2, caspase-9 interaction with XIAP (procaspase-3 activation) (Homo sapiens, UniProt P98170); assay: Procaspase-3 activation in XIAP-containing S100 extracts stimulated with cytochrome c and dATP; format: biochemical; conditions: S100 extracts with purified XIAP, cytochrome c plus dATP; 10, 50 or 300 ng protein
T2 construct: caspase-9: endogenous in 293T/HEK293 S100 extract
Description: FIG. 17 is a scanned image of an autoradiogram, representing SDS-PAGE analysis of ^35S-labeled procaspase-3 following stimulation of 293T S100 extracts (20μg) mixed with purified XIAP (50 ng) with cytochrome c (0.5 μg) plus dATP (1 mM), in the presence of increasing amounts (10, 50, or 300 ng, respectively) of purified mature WT Omi, Omi-ΔAVPS, Omi-S306A, or mature Smac in 10 μl reaction volume. In the fifth lane, S100 extracts were incubated with. 300 ng of WT Omi without XIAP.
Next, it was determined whether Omi, like Smac, promotes caspase-9 activity in HEK293 S100 extracts in the presence of XIAP. To measure the caspase-9 activity in these extracts, ^35S-labeled procaspase-3 was added to the S100 extracts and stimulated the extracts with cytochrome c and dATP. […] These observations indicate that Omi, like Smac, is able to disrupt the interaction of caspase-9 with XIAP in the S100 extracts to promote procaspase-3 activation.

[3] = tested on: GST-BIR1, 2 fusion protein; assay: Interaction of purified recombinant proteins with GST-BIR1, 2 fusion protein; format: binding, human; conditions: purified C-terminal His6-tagged recombinant protein
Text: as §1
(§2) To determine whether a recombinant Omi lacking the first 133 residues (mature Omi) can interact with the GST-BIR3 fusion protein, this protein was expressed with a C-terminal His6 tag in bacteria and purified to apparent homogeneity (see FIG. 7B). […] FIGS. 7A and 7B show scanned images of Coomassie stained gels representing SDS-PAGE analysis of purified C-terminal His6-tagged recombinant wild type mature Omi (WT), Omi-ΔAVPS, Omi-S306A, and mature Smac (FIG. 7A) and recombinant Omi and Smac proteins with GST-BIR1, 2, GST-BIR3 or GST-BIR3-E314S fusion proteins (FIG. 7B).

[4] = molecular target: T3, GST-BIR3 fusion protein (BIR3 domain of human XIAP) (Homo sapiens, UniProt P98170); assay: Interaction of purified recombinant proteins with GST-BIR3 fusion protein (SDS-PAGE, Coomassie); format: binding; conditions: purified C-terminal His6-tagged recombinant protein; wild type GST-BIR3
T3 construct: Omi associates directly with the BIR3 domain of XIAP
Text: as §1, §2

[5] = molecular target: T4, endogenous XIAP (Homo sapiens, UniProt P98170); assay: Co-immunoprecipitation with endogenous XIAP in transfected 293T cells; format: cell-based; conditions: 293T cells transfected with C-terminal Flag-tagged Omi precursors, XIAP western blot
T4 construct: endogenous in cells; host or cells: 293T cells
Text: FIG. 9 is a scanned image of a blot representing western blot analysis using an XIAP monoclonal antibody (upper panel) or Flag antibody (middle panel) of 293T cells transfected with constructs encoding C-terminal Flag-tagged Omi wild type or mutant precursors and immunoprecipitated with Flag antibody. The lower panel is a scanned image of a blot representing total extracts probed with the XIAP antibody. Arrows indicate IgG bands.

[6] = molecular target: T5, cIAP1 (Homo sapiens, UniProt Q13490); assay: In vitro interaction of immobilized His6-tagged protein with 35S-labeled cIAP1; format: binding; conditions: immobilized on Talon-affinity resin; in vitro-translated 35S-labeled cIAP1
T5 construct: made in house; host or cells: in vitro translation (cell-free)
Description: (§3) FIG. 8 is a scanned image of an autoradiogram representing SDS-PAGE analysis of interaction of XIAP, cIAP1, and cIAP2 with mature Omi and Smac. Immobilized C-terminal His6-tagged mature Omi or Smac, or GST protein was incubated with in vitro-translated ^35S-labeled XIAP (first panel), cIAP1 (second panel), or cIAP2 (third panel). The fourth panel is a scanned image of a Coomassie stained gel of the immobilized proteins.
(§4) C-terminal His6-tagged mature Omi or Smac, or a GST protein were immobilized onto Talon-affinity resin. The bound resins were incubated with in vitro-translated ^35S-labeled XIAP (first panel), cIAP1 (second panel) or cIAP2 (third panel), washed extensively, and then analyzed by SDS polyacrylamide gel electrophoresis and autoradiography. GST was used as a negative control (second lane of each panel). The fourth panel, represents a scanned image of a Coomassie stained gel of the immobilized proteins. […] The in vitro assays were performed as described in Srinivasula, S. M. et al., J Biol Chem 275:36152-36157, 2000.

[7] = molecular target: T6, cIAP2 (Homo sapiens, UniProt Q13489); assay: In vitro interaction of immobilized His6-tagged protein with 35S-labeled cIAP2; format: binding; conditions: immobilized on Talon-affinity resin; in vitro-translated 35S-labeled cIAP2
T6 construct: made in house; host or cells: in vitro translation (cell-free)
Description: as §3, §4

[8] = tested on: MCF-7 cells; assay: Immunofluorescence confocal microscopy of Omi in MCF-7 cells; format: cell-based; conditions: TRAIL 1 μg/ml; untreated cells mostly punctate and perinuclear
[9] = tested on: MCF-7 cells; assay: Apoptosis of MCF-7 cells transfected with cytosolic Omi-GFP fusion proteins; format: cell-based; conditions: 36 hours following transfection
Description: (§5) FIG. 20 provides schematic diagrams of the Omi-GFP and GFP-IETD-Omi constructs used to assay the ability of Omi to induce apoptosis or to enhance apoptosis by other stimuli.
FIG. 21 is a bar graphic representation of the percentages of GFP-positive apoptotic MCF-7 cells 36 hours following transfection with M-Omi-S/A-GFP or pEGFP-N1 alone or M-Omi-GFP together with empty vector or expression construct encoding XIAP, XIAP-BIR3, or caspase-9DN. The cells were also transfected with M-Omi-GFP expression construct in the presence of zVAD-FMK (20 μM).

[10] = molecular target: T7, XIAP-BIR3 (Homo sapiens, UniProt P98170); assay: GST-BIR3 precipitation of extracts of transfected 293T cells; format: binding; conditions: 24 hours after transfection
T7 construct: Omi associates directly with the BIR3 domain of XIAP
Description: FIG. 24 is a scanned image of an immunoblot with Flag-HRP antibody of 293T cells extracts precipitated with GST-BIR3 24 hours after transfection with the indicated expression constructs extracts.
(§6) Next, the contribution of the IAP binding activity of Omi to its proapoptotic activity was tested. The MTS of Omi was replaced with a GFP-IETD sequence and mutated at its active site Ser306 to Ala (FIG. 20, GFP-IETD-AVP). Of note, the presence of the IETD sequence between GFP and Omi-S/A allowed caspase-dependent cleavage at the IETD site after the Asp residue and release of mature Omi-S/A in the cytosol of the transfected 293 and MCF-7 cells (FIG. 23). […] Taken together, Omi not only can induce apoptosis through its serine protease activity but also via its ability to bind and neutralize IAPs.

[11] = tested on: MCF-7 cells; assay: TRAIL-induced apoptosis of MCF-7 cells transfected with GFP-IETD-Omi constructs; format: cell-based; conditions: TRAIL for 16 hours, 24 hours following transfection; versus GFP transfected control cells
Description: as §5
FIG. 25 is a bar graphic representation of the percentages of the determined round apoptotic MCF-7 cells that were left untreated (−) or treated with TRAIL (+) for 16 hours 24 hours following transfection with the indicated expression constructs.
as §6

T7 sequence (P98170 238-358 limits assumed): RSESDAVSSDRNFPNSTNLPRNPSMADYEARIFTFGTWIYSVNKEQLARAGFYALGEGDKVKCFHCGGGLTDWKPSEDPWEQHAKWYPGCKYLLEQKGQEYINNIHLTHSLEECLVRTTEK
T3 sequence (P98170 238-358 limits assumed): as above
T6 sequence (Q13489 whole entry, species assumed): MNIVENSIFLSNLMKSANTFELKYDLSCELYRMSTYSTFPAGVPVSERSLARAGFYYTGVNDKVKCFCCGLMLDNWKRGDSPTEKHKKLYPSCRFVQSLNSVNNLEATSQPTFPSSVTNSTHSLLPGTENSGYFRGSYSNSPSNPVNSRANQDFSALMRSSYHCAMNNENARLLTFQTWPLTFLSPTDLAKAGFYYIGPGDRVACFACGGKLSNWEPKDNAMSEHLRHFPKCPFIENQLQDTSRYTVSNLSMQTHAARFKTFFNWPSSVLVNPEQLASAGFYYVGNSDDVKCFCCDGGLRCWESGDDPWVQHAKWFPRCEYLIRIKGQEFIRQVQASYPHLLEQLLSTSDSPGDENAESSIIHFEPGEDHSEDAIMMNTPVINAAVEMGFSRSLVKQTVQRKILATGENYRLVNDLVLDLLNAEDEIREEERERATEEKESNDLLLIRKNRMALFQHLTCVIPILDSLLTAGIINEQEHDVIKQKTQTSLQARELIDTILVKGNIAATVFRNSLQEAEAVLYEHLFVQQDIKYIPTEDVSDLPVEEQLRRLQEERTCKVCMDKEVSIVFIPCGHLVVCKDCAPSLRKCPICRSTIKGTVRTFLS
T2 sequence (P98170 whole entry): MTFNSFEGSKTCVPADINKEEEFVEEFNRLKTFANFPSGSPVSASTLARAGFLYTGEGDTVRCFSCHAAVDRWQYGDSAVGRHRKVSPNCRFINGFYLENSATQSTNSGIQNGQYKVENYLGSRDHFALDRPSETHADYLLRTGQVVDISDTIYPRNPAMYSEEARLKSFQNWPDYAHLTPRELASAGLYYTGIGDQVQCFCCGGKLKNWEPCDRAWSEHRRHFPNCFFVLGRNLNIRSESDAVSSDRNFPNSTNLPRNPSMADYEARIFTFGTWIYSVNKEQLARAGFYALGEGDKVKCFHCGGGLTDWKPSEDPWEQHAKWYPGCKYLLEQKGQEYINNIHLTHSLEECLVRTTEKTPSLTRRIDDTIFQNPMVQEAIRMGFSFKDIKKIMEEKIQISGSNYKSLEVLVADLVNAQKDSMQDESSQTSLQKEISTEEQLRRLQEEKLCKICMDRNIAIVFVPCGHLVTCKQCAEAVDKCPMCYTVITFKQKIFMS
T4 sequence (P98170 whole entry): as above
Chain of GST-BIR1, 2 fusion protein (P98170 124-240 limits assumed): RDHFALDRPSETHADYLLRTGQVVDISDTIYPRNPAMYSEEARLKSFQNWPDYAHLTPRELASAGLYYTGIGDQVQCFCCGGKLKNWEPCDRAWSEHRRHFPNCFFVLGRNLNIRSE
T1 sequence (P98170 238-358 E314S limits assumed): as the sequence (P98170 238-358 limits assumed) above, with E77S counted along it
T5 sequence (Q13490 whole entry, species assumed): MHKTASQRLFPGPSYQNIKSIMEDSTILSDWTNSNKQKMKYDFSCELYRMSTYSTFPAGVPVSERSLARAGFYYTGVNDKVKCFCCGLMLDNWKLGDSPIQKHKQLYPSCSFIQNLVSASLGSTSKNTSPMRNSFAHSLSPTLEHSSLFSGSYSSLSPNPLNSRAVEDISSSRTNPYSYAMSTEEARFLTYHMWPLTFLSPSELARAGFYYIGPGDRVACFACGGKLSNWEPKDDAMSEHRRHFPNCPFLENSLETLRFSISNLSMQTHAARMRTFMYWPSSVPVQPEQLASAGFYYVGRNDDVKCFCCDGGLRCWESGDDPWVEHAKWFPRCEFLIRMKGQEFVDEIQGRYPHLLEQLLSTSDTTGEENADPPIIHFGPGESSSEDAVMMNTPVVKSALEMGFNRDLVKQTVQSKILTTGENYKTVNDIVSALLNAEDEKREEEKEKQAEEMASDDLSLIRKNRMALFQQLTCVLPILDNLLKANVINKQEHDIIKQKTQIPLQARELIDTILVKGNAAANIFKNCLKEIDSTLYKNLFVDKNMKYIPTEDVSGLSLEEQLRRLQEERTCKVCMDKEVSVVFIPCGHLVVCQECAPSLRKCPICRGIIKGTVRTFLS

B1: mature Omi: Omi polypeptide comprising residues 134-458 of SEQ ID NO:1; recombinant with C-terminal His6 tag (protein, listed as Homo sapiens)
chain: AVPSPPPASPRSQYNFIADVVEKTAPAVVYIEILDRHPFLGREVPISNGSGFVVAADGLIVTNAHVVADRRRVRVRLLSGDTYEAVVTAVDPVADIATLRIQTKEPLPTLPLGRSADVRQGEFVVAMGSPFALQNTITSGIVSSAQRPARDLGLPQTNVEYIQTDAAIDFGNSGGPLVNLDGEVIGVNTMKVTAGISFAIPSDRLREFLHRGEKKNSSSGISGSQRRYIGVMMLTLSPSILAELQLREPSFPDVQHGVLIHKVILGSPAHRAGLRPGDVILAIGEQMVQNAEDVYEAVRTQSQLAVQIRRGRETLTLYVTPEVTE
modifications: C-terminal His6 tag
B1 was tested, and the “interaction with GST-BIR3-E314S mutant” value [1] was “not with the GST-BIR3-E314S mutant”, the “promotion of procaspase-3 activation” value [2] was “able to promote procaspase-3 activation in the XIAP-containing S100 extracts almost to the same extent as Smac” and the “interaction with GST-BIR1, 2 fusion protein” value [3] was “able to interact with the GST-BIR1, 2 fusion protein”. For the same molecule, the “interaction with GST-BIR3 fusion protein” value [4] was “able to interact equally with the wild type GST-BIR3 protein”, the “interaction with endogenous XIAP in vivo” value [5] was “can also interact with endogenous XIAP in vivo” and the “interaction with cIAP1” value [6] was “found to also interact with cIAP1”. For the same molecule, the “interaction with cIAP2” value [7] was “found to also interact with cIAP1 and cIAP2”.

B2: TRAIL: apoptotic stimulus acting by TRAIL-receptor ligation (protein, UniProt P50591 1-281, looked up)
Tumor necrosis factor ligand …: MAMMEVQGGPSLGQTCVLIVIFTVLLQSLCVAVTYVYFTNELKQMQDKYSKSGIACFLKEDDSYWDPNDEESMNSPCWQVKWQLRQLVRKMILRTSEETISTVQEKQQNISPLVRERGPQRVAAHITGTRGRSNTLSSPNSKNEKALGRKINSWESSRSGHSFLSNLHLRNGELVIHEKGFYYIYSQTYFRFQEEIKENTKNDKQMVQYIYKYTSYPDPILLMKSARNSCWSKDAEYGLYSIYQGGIFELKENDRIFVSVTNEHLIDMDHEASFFGAFLVG
B2 was tested, and the “immunofluorescence staining pattern of Omi” value [8] was “showed diffused immunofluorescence staining of Omi”.

B3: M-Omi-S/A-GFP: inactive (S306A) Omi-GFP fusion protein without the MTS (protein)
chain: MAVPSPPPASPRSQYNFIADVVEKTAPAVVYIEILDRHPFLGREVPISNGSGFVVAADGLIVTNAHVVADRRRVRVRLLSGDTYEAVVTAVDPVADIATLRIQTKEPLPTLPLGRSADVRQGEFVVAMGSPFALQNTITSGIVSSAQRPARDLGLPQTNVEYIQTDAAIDFGNAGGPLVNLDGEVIGVNTMKVTAGISFAIPSDRLREFLHRGEKKNSSSGISGSQRRYIGVMMLTLSPSILAELQLREPSFPDVQHGVLIHKVILGSPAHRAGLRPGDVILAIGEQMVQNAEDVYEAVRTQSQLAVQIRRGRETLTLYVTPEVTE
modifications: left off: large carriers
B3 was tested, and the “induction of apoptosis in MCF-7 cells” value [9] was “not the inactive M-Omi-S/A-GFP, was able to induce apoptosis” and the “binding to XIAP-BIR3 (GST-BIR3)” value [10] was “do not bind XIAP-BIR3”.

B4: GFP-IETD-AVP: Omi with MTS replaced by a GFP-IETD sequence and active site Ser306 mutated to Ala (protein)
chain: AVPSPPPASPRSQYNFIADVVEKTAPAVVYIEILDRHPFLGREVPISNGSGFVVAADGLIVTNAHVVADRRRVRVRLLSGDTYEAVVTAVDPVADIATLRIQTKEPLPTLPLGRSADVRQGEFVVAMGSPFALQNTITSGIVSSAQRPARDLGLPQTNVEYIQTDAAIDFGNAGGPLVNLDGEVIGVNTMKVTAGISFAIPSDRLREFLHRGEKKNSSSGISGSQRRYIGVMMLTLSPSILAELQLREPSFPDVQHGVLIHKVILGSPAHRAGLRPGDVILAIGEQMVQNAEDVYEAVRTQSQLAVQIRRGRETLTLYVTPEVTE
For B4, the “enhancement of TRAIL-induced apoptosis” value [11] was “enhanced TRAIL-induced apoptosis in these cells several folds above the GFP transfected control cells”.

B5: GFP-IETD-SSA: GFP-IETD-Omi-S/A with the AVPS motif mutated to SSAS motif (protein)
chain: SSASPPPASPRSQYNFIADVVEKTAPAVVYIEILDRHPFLGREVPISNGSGFVVAADGLIVTNAHVVADRRRVRVRLLSGDTYEAVVTAVDPVADIATLRIQTKEPLPTLPLGRSADVRQGEFVVAMGSPFALQNTITSGIVSSAQRPARDLGLPQTNVEYIQTDAAIDFGNAGGPLVNLDGEVIGVNTMKVTAGISFAIPSDRLREFLHRGEKKNSSSGISGSQRRYIGVMMLTLSPSILAELQLREPSFPDVQHGVLIHKVILGSPAHRAGLRPGDVILAIGEQMVQNAEDVYEAVRTQSQLAVQIRRGRETLTLYVTPEVTE
With B5 the “enhancement of TRAIL-induced apoptosis” value [11] was “abolished the apoptotic enhancement activity” and the “binding to XIAP-BIR3 (GST-BIR3)” value [10] was “abolished the apoptotic enhancement activity of Omi-S/A and the ability to bind to BIR3”.
